Our source for the stoichiometry N values is publication doi:10.1101/2025.11.23.689978.

Where “and” joins values, the source holds several entries; their conditions need not be identical. Equal entries are not always repeated.

Usually stoichiometry N stands for a count of units in the complex or per binding partner.

Experiment [1] addresses AimC_(BMbtp14), purified (phage BMBtp14 (B. cereus group phage)). Nature of the experiment: SEC-MALS. (In general: Size exclusion chromatography separates by hydrodynamic size, large species first.)
In experiment [2] the target is AimC_(ϕ106), purified (phage ϕ106 (of Bacillus inaquosorum strain KCTC 13429)). Nature of the experiment: SEC-MALS.

Take “AimC_(BMbtp14), purified (natural protein)”: the stoichiometry N in experiment [1] was 2 and 4.

Substance AimC_(ϕ106), purified (natural protein) showed a stoichiometry N in experiment [2] of 2.
